For assay [1], the target named is T1, His-tagged lamin A/C 1-300 fragment, wild type (human, UniProt P02545 1-300).
T1 sequence (looked up): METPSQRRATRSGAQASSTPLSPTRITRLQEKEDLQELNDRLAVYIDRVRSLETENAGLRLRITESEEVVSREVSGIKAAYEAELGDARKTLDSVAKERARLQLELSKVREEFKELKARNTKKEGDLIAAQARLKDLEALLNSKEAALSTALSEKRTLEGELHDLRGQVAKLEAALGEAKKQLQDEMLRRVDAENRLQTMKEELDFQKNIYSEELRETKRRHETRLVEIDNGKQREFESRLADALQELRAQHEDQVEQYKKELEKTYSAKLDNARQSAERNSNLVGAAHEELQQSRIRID
Description: pull-down.

For assay [2], the target named is T2, His-tagged lamin A/C 1-300 fragment, L59R (human, UniProt P02545 1-300, L59R).
T2 sequence (looked up): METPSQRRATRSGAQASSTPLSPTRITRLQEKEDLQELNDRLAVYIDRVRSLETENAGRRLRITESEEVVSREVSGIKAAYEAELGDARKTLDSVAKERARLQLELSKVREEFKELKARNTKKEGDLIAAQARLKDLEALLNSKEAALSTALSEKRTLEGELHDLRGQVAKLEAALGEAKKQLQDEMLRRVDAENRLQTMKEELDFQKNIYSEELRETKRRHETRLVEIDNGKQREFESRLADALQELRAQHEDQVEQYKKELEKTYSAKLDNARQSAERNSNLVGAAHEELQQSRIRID
Description: ITC. In general terms: In ITC the heat of successive injections is recorded.

The target of assay [3] is T3, His-tagged lamin A/C 1-300 fragment, L35V (human, UniProt P02545 1-300, L35V).
T3 sequence (looked up): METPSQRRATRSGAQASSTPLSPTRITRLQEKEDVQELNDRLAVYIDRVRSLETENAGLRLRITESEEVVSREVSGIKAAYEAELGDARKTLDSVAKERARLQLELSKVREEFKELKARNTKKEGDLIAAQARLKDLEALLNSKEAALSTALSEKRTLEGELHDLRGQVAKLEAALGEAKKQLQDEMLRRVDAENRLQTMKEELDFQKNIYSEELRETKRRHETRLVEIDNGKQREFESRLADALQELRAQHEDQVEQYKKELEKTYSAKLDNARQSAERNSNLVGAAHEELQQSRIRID
In words: ITC.

For assay [4], the target named is T4, His-tagged lamin A/C 1-300 fragment, I63S (human, UniProt P02545 1-300, I63S).
T4 sequence (looked up): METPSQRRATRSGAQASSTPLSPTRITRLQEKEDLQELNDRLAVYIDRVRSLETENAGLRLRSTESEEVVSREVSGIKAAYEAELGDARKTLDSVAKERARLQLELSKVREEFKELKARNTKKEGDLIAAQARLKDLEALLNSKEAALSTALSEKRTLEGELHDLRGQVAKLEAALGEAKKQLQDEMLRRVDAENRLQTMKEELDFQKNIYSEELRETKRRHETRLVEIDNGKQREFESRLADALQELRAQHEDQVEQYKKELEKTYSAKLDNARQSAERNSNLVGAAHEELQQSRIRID
Description: ITC.

The target in assay [5] is T5, His-tagged lamin A/C 1-300 fragment, Y45C (human), P02545.
T5 chain: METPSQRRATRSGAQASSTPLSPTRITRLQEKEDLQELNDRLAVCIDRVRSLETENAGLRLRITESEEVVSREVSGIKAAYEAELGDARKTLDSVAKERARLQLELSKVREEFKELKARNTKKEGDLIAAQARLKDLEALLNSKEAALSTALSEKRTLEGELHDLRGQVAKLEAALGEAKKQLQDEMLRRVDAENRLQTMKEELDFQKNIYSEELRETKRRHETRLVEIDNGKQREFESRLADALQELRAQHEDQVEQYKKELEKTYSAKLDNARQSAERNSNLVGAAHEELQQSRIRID
Description: ITC. To be noted: remark: other sources report otherwise.

B1: lamin A/C 250-400 fragment (C-terminal part of coil 2), wild type, tag-free (domain or fragment, human, UniProt P02545 250-400, looked up)
chain: AQHEDQVEQYKKELEKTYSAKLDNARQSAERNSNLVGAAHEELQQSRIRIDSLSAQLSQLQKQLAAKEAKLRDLEDSLARERDTSRRLLAEKEREMAEMRARMQQQLDEYQELLDIKLALDMEIHAYRKLLEGEEERLRLSPSPTSQRSRG
B1: the binding result in assay [1] is on record as “binds”. In addition, the “fold increase of the eA22 interaction against wild type (from KD)” value in assay [2] is about 56 fold; in assay [4], about 2 fold. The “fold decrease of the eA22 interaction against wild type (from KD)” value in assay [3] is about 2 fold; in assay [5] it was 5 fold.

The values above are taken from doi:10.1101/2020.09.29.317933 (bioRxiv, 2020).
